Results reported in patent US20190060430A1 (published 2019).

Key:
Experiment in all cases: cytokine release
[1] = target: T1, PLAC1 peptide on HLA-A*02:01 (human)
T1 peptide: VLCSIDWFM

[2] = target: T2, PLAC1 peptide on HLA-A*02:01 (human)
T2 peptide: SIDWFMVTV

[3] = target: T3, PLAC1 peptide on HLA-A*02:01 (human)
T3 peptide: CSIDWFMVTVHP

[4] = target: T4, NY-ESO-1 peptide on HLA-B*35:08 (human)
T4 peptide: LAMPFATPM

[5] = target: NY-ESO-1 peptide on HLA-DRB1*11:01 (human)
[6] = target: T5, TPTE peptide on HLA-DRB1*15:01 (human)
T5 peptide: DVVYIFFDIKLLRNI

[7] = target: T6, hCMV pp65 peptide on HLA-DRB1*07:01 (human)
T6 peptide: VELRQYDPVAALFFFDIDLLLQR

B1: TCRCD8-mPL#17 (TCR, V domains shown)
Valpha: QQQVRQSPQSLTVWEGETAILNCSYEDSTFNYFPWYQQFPGEGPALLISIRSVSDKKEDGRFTIFFNKREKKLSLHITDSQPGDSATYFCAPNNRIFFGDGTQLVVKP
Vbeta: EAAVTQSPRNKVAVTGGKVTLSCNQTNNHNNMYWYRQDTGHGLRLIHYSYGAGSTEKGDIPDGYKASRPSQENFSLILELATPSQTSVYFCASLGYNYAEQFFGPGTRLTVL
- binding result [1]: recognises
- binding result [2]: recognises
- binding result [3]: recognises

B2: TCRCD8-NY#15 (TCR, V domains shown)
Valpha: QKEVEQNSGPLSVPEGAIASLNCTYSDRGSQSFFWYRQYSGKSPELIMSIYSNGDKEDGRFTAQLNKASQYVSLLIRDSQPSDSATYLCAVPYYWSSGGSNYKLTFGKGTLLTVNP
Vbeta: DTEVTQTPKHLVMGMTNKKSLKCEQHMGHRAMYWYKQKAKKPPELMFVYSYEKLSINESVPSRFSPECPNSSLLNLHLHALQPEDSALYLCASSQSGLEETQYFGPGTRLLVL
- binding result [4]: recognises

B3: TCRCD4-NY#5 (TCR, V domains shown)
Valpha: AQSVTQLGSHVSVSEGALVLLRCNYSSSVPPYLFWYVQYPNQGLQLLLKYTTGATLVKGINGFEAEFKKSETSFHLTKPSAHMSDAAEYFCAVSRANFGNEKLTFGTGTRLTIIP
Vbeta: DTEVTQTPKHLVMGMTNKKSLKCEQHMGHRAMYWYKQKAKKPPELMFVYSYEKLSINESVPSRFSPECPNSSLLNLHLHALQPEDSALYLCASSQDPRGGPQHFGDGTRLSIL
- binding result [5]: recognises

B4: TCRCD4-TPT#48/2 (TCR, V domains shown)
Valpha: AQSVTQPDIHITVSEGASLELRCNYSYGATPYLFWYVQSPGQGLQLLLKYFSGDTLVQGIKGFEAEFKRSQSSFNLRKPSVHWSDAAEYFCAVGAYDMRFGAGTRLTVKP
Vbeta: DVKVTQSSRYLVKRTGEKVFLECVQDMDHENMFWYRQDPGLGLRLIYFSYDVKMKEKGDIPEGYSVSREKKERFSLILESASTNQTSMYLCASNRLNTEAFFGQGTRLTVV
- binding result [6]: recognises

B5: TCRCD8-mPL#19 (TCR, V domains shown)
Valpha: GDSVIQMQGQVTLSENDFLFINCTYSTTGYPTLFWYVQYSGEGPQLLLQVTTANNKGSSRGFEATYDKGTTSFHLQKTSVQEIDSAVYYCAMSDASGSWQLIFGSGTQLTVMP
Vbeta: EAAVTQSPRSKVAVTGGKVTLSCHQTNNHDYMYWYRQDTGHGLRLIHYSYVADSTEKGDIPDGYKASRPSQENFSLILELASLSQTAVYFCASSPDRPSYNSPLYFAAGTRLTVT
- binding result [1]: recognises
- binding result [2]: recognises
- binding result [3]: recognises

B6: TCRCD8-NY#6 (TCR, V domains shown)
Valpha: SQQGEEDPQALSIQEGENATMNCSYKTSINNLQWYRQNSGRGLVHLILIRSNEREKHSGRLRVTLDTSKKSSSLLITASRAADTASYFCATDEYGNKLVFGAGTILRVKS
Vbeta: DAGVIQSPRHEVTEMGQEVTLRCKPISGHNSLFWYRQTMMRGLELLIYFNNNVPIDDSGMPEDRFSAKMPNASFSTLKIQPSEPRDSAVYFCASSYPGFNEQFFGPGTRLTVL
- binding result [4]: recognises

B7: TCRCD8-NY#8 (TCR, V domains shown)
Valpha: AQSVTQLDSQVPVFEEAPVELRCNYSSSVSVYLFWYVQYPNQGLQLLLKYLSGSTLVKGINGFEAEFNKSQTSFHLRKPSVHISDTAEYFCAVSDQGTGGFKTIFGAGTRLFVKA
Vbeta: DVKVTQSSRYLVKRTGEKVFLECVQDMDHENMFWYRQDPGLGLRLIYFSYDVKMKEKGDIPEGYSVSREKKERFSLILESASTNQTSMYLCASRGTVTSSLMNTEAFFGQGTRLTVV
- binding result [4]: recognises

B8: TCRCD8-mPL#12 (TCR, V domains shown)
Valpha: GDQVEQSPSALSLHEGTGSALRCNFTTTMRAVQWFQQNSRGSLINLFYLASGTKENGRLKSTFNSKESYSTLHIRDAQLEDSGTYFCAAVNTNTGKLTFGDGTVLTVKP
Vbeta: SVLLYQKPNRDICQSGTSLKIQCVADSQVVSMFWYQQFQEQSLMLMATANEGSEATYESGFTKDKFPISRPNLTFSTLTVNNARPGDSSIYFCSSRTPNTGQLYFGEGSKLTVL
- binding result [1]: recognises
- binding result [2]: recognises
- binding result [3]: recognises

B9: TCRCD8-mPL#8 (TCR, V domains shown)
Valpha: TQTVSQSDAHVTVFEGDSVELRCNYSYGGSIYLSWYIQHHGRGLQFLLKYYSGNPVVQGVNGFKAEFSKSDSSFHLRKASVHWSDSAVYFCAVSAGGYKVVFGSGTRLLVSP
Vbeta: NTKITQSPRYLILGRANKSLECEQHLGHNAMYWYKQSAEKPPELMFLYNLKQLIRNETVPSRFIPECPDSSKLLLHISAVDPEDSAVYFCASSPGGAEQFFGPGTRLTVL
- binding result [1]: recognises
- binding result [2]: recognises
- binding result [3]: recognises

B10: TCRCD8-mPL#14 (TCR, V domains shown)
Valpha: TQTVSQSDAHVTVFEGDSVELRCNYSYGGSIYLSWYIQHHGHGLQFLLKYYSGNPVVQGVNGFEAEFSKSDSSFHLRKASVHWSDSAVYFCAVSSGGYKVVFGSGTRLLVSP
Vbeta: NTKITQSPRYLILGRANKSLECEQHLGHNAMYWYKQSAEKPPELMFLYNLKQLIRNETVPSRFIPECPDSSKLLLHISAVDPEDSAVYFCASSQGGTEVFFGKGTRLTVV
- binding result [1]: recognises
- binding result [2]: recognises
- binding result [3]: recognises

B11: TCRCD8-mPL#2 (TCR, V domains shown)
Valpha: GDSVTQTEGQVTVSESKSLIINCTYSATSIGYPNLFWYVRYPGEGLQLLLKVITAGQKGSSRGFEATYNKEATSFHLQKASVQESDSAVYYCALSDSNYQLIWGSGTKLIIKP
Vbeta: DPKIIQKPKYLVAVTGSEKILICEQYLGHNAMYWYRQSAKKPLEFMFSYSYQKLMDNQTASSRFQPQSSKKNHLDLQITALKPDDSATYFCASSPDNSGNTLYFGEGSRLIVV
- binding result [1]: recognises
- binding result [2]: recognises
- binding result [3]: recognises

B12: TCRCD8-mPL#11 (TCR, V domains shown)
Valpha: GDSVTQTEGPVTVSESESLIINCTYSATSIAYPNLFWYVRYPGEGLQLLLKVITAGQKGSSRGFEATYNKETTSFHLQKASVQESDSAVYYCALGLGYKLTFGTGTSLLVDP
Vbeta: DPKIIQKPKYLVAVTGSEKILICEQYLGHNAMYWYRQSAKKPLEFMFSYSYQKLMDNQTASSRFQPQSSKKNHLDLQITALKPDDSATYFCASSGDNSGNTLYFGEGSRLIVV
- binding result [1]: recognises
- binding result [2]: recognises
- binding result [3]: recognises

B13: TCRCD4-TPT#91 (TCR, V domains shown)
Valpha: EDQVTQSPEALRLQEGESSSLNCSYTVSGLRGLFWYRQDPGKGPEFLFTLYSAGEEKEKERLKATLTKKESFLHITAPKPEDSATYLCAVLGGSNYKLTFGKGTLLTVNP
Vbeta: NAGVTQTPKFQVLKTGQSMTLQCAQDMNHNSMYWYRQDPGMGLRLIYYSASEGTTDKGEVPNGYNVSRLNKREFSLRLESAAPSQTSVYFCAISRDSYEQYFGPGTRLTVT
- binding result [6]: recognises

B14: TCRCD4-NY#11 (TCR, V domains shown)
Valpha: AQSVSQHNHHVILSEAASLELGCNYSYGGTVNLFWYVQYPGQHLQLLLKYFSGDPLVKGIKGFEAEFIKSKFSFNLRKPSVQWSDTAEYFCAVNRRTGNQGGKLIFGQGTELSVKP
Vbeta: EAGVAQSPRYKIIEKRQSVAFWCNPISGHATLYWYQQILGQGPKLLIQFQNNGVVDDSQLPKDRFSAERLKGVDSTLKIQPAKLEDSAVYLCASSLGPYIDGAGCTFGSGTRLTVV
- binding result [5]: recognises

B15: TCRCD4-TPT#67 (TCR, V domains shown)
Valpha: QKEVEQDPGPLSVPEGAIVSLNCTYSNSAFQYFMWYRQYSRKGPELLMYTYSSGNKEDGRFTAQVDKSSKYISLFIRDSQPSDSATYLCALYTGGFKTIFGAGTRLFVKA
Vbeta: KAGVTQTPRYLIKTRGQQVTLSCSPISGHRSVSWYQQTPGQGLQFLFEYFSETQRNKGNFPGRFSGRQFSNSRSEMNVSTLELGDSALYLCASSFMGTEQYFGPGTRLTVT
- binding result [6]: recognises

B16: TCRCD8-NY#5 (TCR, V domains shown)
Valpha: ILNVEQSPQSLHVQEGDSTNFTCSFPSSNFYALHWYRWETAKSPEALFVMTLNGDEKKKGRISATLNTKEGYSYLYIKGSQPEDSATYLCASTSYSSASKIIFGSGTRLSIRP
Vbeta: GAGVSQSPRYKVTKRGQDVALRCDPISGHVSLYWYRQALGQGPEFLTYFNYEAQQDKSGLPNDRFSAERPEGSISTLTIQRTEQRDSAMYRCASSHSSGGAGELFFGEGSRLTVL
- binding result [4]: recognises

B17: TCRCD8-mPL#20 (TCR, V domains shown)
Valpha: GDSVTQKEGLVTLTEGLPVMLNCTYQTIYSNAFLFWYVHYLNESPRLLLKSSTDNKRTEHQGFHATLHKSSSSFHLQKSSAQLSDSALYYCALNNVGDNSKLIWGLGTSLVVNP
Vbeta: NTKITQSPRYLILGRANKSLECEQHLGHNAMYWYKQSAEKPPELMFLYNLKQLIRNETVPSRFIPECPDSSKLLLHISAVDPEDSAVYFCASSQYGGANTEVFFGKGTRLTVV
- binding result [1]: recognises
- binding result [2]: recognises
- binding result [3]: recognises

B18: TCRCD4-CMV#3 (TCR, V domains shown)
Valpha: AQSVTQLDSQVPVFEEAPVELRCNYSSSVSVYLFWYVQYPNQGLQLLLKYLSGSTLVKGINGFEAEFNKSQTSFHLRKPSVHISDTAEYFCAVSSYGSSNTGKLIFGQGTTLQVKP
Vbeta: NAGVTQTPKFQVLKTGQSMTLQCAQDMNHNSMYWYRQDPGMGLRLIYYSASEGTTDKGEVPNGYNVSRLNKREFSLRLESAAPSQTSVYFCASSTAGGRNYGYTFGSGTRLTVV
- binding result [7]: recognises

B19: TCRCD8-mPL#22 (TCR, V domains shown)
Valpha: GQQVQQSPASLVLQEGENAELQCNFSSTATRLQWFYQHPGGRLVSLFYNPSGTKHTGRLTSTTVTNERRSSLHISSSQTTDSGTYFCAAASNTNKVVFGTGTRLQVLP
Vbeta: GALVYQYPRRTICKSGTSMRMECQAVGFQATSVAWYRQSPQKTFELIALSTVNSAIKYEQNFTQEKFPISHPNLSFSSMTVLNAYLEDRGLYLCGVDRANYAEQFFGPGTRLTVL
- binding result [1]: recognises
- binding result [2]: recognises
- binding result [3]: recognises
